Target: 40S ribosomal subunits purified from rabbit reticulocyte lysate (rabbit) (UniProt G1U0Q2)
Assay: protein transfer assay

Row | Substance | percent of the protein transferred from scAlu RNA to 40S [%]
1 | human recombinant SRP9/14 protein heterodimer, wild type (from UniProt P49458 1-86; P37108 1-136) (complex) | 41
2 | human recombinant SRP9/14A5 (basic pentapeptide K96-K100 of SRP14 mutated) (from UniProt P49458 1-86; P37108 1-136) (complex) | 16

— publication PMC4176187
